Data on one protein can be found in publication doi:10.1101/2020.08.23.263558 (bioRxiv, 2020).

This data set deals with the molecule itself. The experiment in a line: cryo-EM structure.

B1: full length human Top2α (1-1531) (enzyme)
chain: MEVSPLQPVNENMQVNKIKKNEDAKKRLSVERIYQKKTQLEHILLRPDTYIGSVELVTQQMWVYDEDVGINYREVTFVPGLYKIFDEILVNAADNKQRDPKMSCIRVTIDPENNLISIWNNGKGIPVVEHKVEKMYVPALIFGQLLTSSNYDDDEKKVTGGRNGYGAKLCNIFSTKFTVETASREYKKMFKQTWMDNMGRAGEMELKPFNGEDYTCITFQPDLSKFKMQSLDKDIVALMVRRAYDIAGSTKDVKVFLNGNKLPVKGFRSYVDMYLKDKLDETGNSLKVIHEQVNHRWEVCLTMSEKGFQQISFVNSIATSKGGRHVDYVADQIVTKLVDVVKKKNKGGVAVKAHQVKNHMWIFVNALIENPTFDSQTKENMTLQPKSFGSTCQLSEKFIKAAIGCGIVESILNWVKFKAQVQLNKKCSAVKHNRIKGIPKLDDANDAGGRNSTECTLILTEGDSAKTLAVSGLGVVGRDKYGVFPLRGKILNVREASHKQIMENAEINNIIKIVGLQYKKNYEDEDSLKTLRYGKIMIMTDQDQDGSHIKGLLINFIHHNWPSLLRHRFLEEFITPIVKVSKNKQEMAFYSLPEFEEWKSSTPNHKKWKVKYYKGLGTSTSKEAKEYFADMKRHRIQFKYSGPEDDAAISLAFSKKQIDDRKEWLTNFMEDRRQRKLLGLPEDYLYGQTTTYLTYNDFINKELILFSNSDNERSIPSMVDGLKPGQRKVLFTCFKRNDKREVKVAQLAGSVAEMSSYHHGEMSLMMTIINLAQNFVGSNNLNLLQPIGQFGTRLHGGKDSASPRYIFTMLSSLARLLFPPKDDHTLKFLYDDNQRVEPEWYIPIIPMVLINGAEGIGTGWSCKIPNFDVREIVNNIRRLMDGEEPLPMLPSYKNFKGTIEELAPNQYVISGEVAILNSTTIEISELPVRTWTQTYKEQVLEPMLNGTEKTPPLITDYREYHTDTTVKFVVKMTEEKLAEAERVGLHKVFKLQTSLTCNSMVLFDHVGCLKKYDTVLDILRDFFELRLKYYGLRKEWLLGMLGAESAKLNNQARFILEKIDGKIIIENKPKKELIKVLIQRGYDSDPVKAWKEAQQKVPDEEENEESDNEKETEKSDSVTDSGPTFNYLLDMPLWYLTKEKKDELCRLRNEKEQELDTLKRKSPSDLWKEDLATFIEELEAVEAKEKQDEQVGLPGKGGKAKGKKTQMAEVLPSPRGQRVIPRITIEMKAEAEKKNKKKIKNENTEGSPQEDGVELEGLKQRLEKKQKREPGTKTKKQTTLAFKPIKKGKKRNPWSDSESDRSSDESNFDVPPRETEPRRAATKTKFTMDLDSDEDFSDFDEKTDDEDFVPSDASPPKTKTSPKLSNKELKPQKSVVSDLEADDVKGSVPLSSSPPATHFPDETEITNPVPKKNVTVKKTAAKSQSSTSTTGAKKRAAPKGTKRDPALNSGVSQKPDPAKTKNRRKRKPSTSDDSDSNFEKIVSKAVTSKKSKGESDDFHMDFDSAVAPRAKSVRAKKPIKYLEESDEDDLF
In general, stoichiometry N refers to the number of molecules, sites or subunits per partner or assembly. As for B1, the “stoichiometry N” value stood at 2.
